# Results from the supplement of paper PMC9112550, “Optimization of the antimicrobial peptide Bac7 by deep mutational scanning” (BMC Biology, 2022).
# System: Escherichia coli TOP10
# Assay: shrunken log2 fold change of peptide-encoding DNA abundance (4.5 h post-induction vs induction); higher = less antimicrobial activity (less host growth inhibition)
# Conditions: time post-induction: 4.5 h; library: site-saturation at positions 5, 18, 19, 20
# 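Note: peptides expressed intracellularly from a pBAD plasmid library in pooled LB shake-flask culture, induced with 0.3% L-arabinose, DNA abundance read by NGS, three biological replicates, DESeq2 with apeglm shrinkage.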
row,Sequence,shrunken log2 fold change
1,RRIRERPPRLPRPRPRPSPFPRP,-0.972
2,RRIRNRPPRLPRPRPRPTDPPRP,0.162
3,RRIRERPPRLPRPRPRPEMCPRP,-0.0143
4,RRIRFRPPRLPRPRPRPDDAPRP,0.133
5,RRIRYRPPRLPRPRPRPNWYPRP,-1.48
6,RRIRRRPPRLPRPRPRPNILPRP,-0.0406
7,RRIRHRPPRLPRPRPRPVSNPRP,-0.222
8,RRIRDRPPRLPRPRPRPELQPRP,0.072
9,RRIRFRPPRLPRPRPRPDKQPRP,-0.0106
10,RRIRSRPPRLPRPRPRPYTIPRP,-0.808
11,RRIRMRPPRLPRPRPRPKGAPRP,1.76
12,RRIRGRPPRLPRPRPRPYIRPRP,-0.111
13,RRIRHRPPRLPRPRPRPYVKPRP,-0.509
14,RRIRSRPPRLPRPRPRPSRQPRP,-0.447
15,RRIRWRPPRLPRPRPRPNCMPRP,-0.302
16,RRIRPRPPRLPRPRPRPRFAPRP,0.323
17,RRIRFRPPRLPRPRPRPGDLPRP,-0.23
18,RRIRNRPPRLPRPRPRPGWGPRP,0.492
19,RRIRSRPPRLPRPRPRPNDGPRP,-0.0933
20,RRIRQRPPRLPRPRPRPQPSPRP,0.44
21,RRIRTRPPRLPRPRPRPGIKPRP,-0.162
22,RRIRDRPPRLPRPRPRPHYGPRP,-0.192

row,Sequence,shrunken log2 fold change
1,RRIRARPPRLPRPRPRPNGVPRP,-0.00122
2,RRIRVRPPRLPRPRPRPVTRPRP,0.0259
3,RRIRNRPPRLPRPRPRPQQGPRP,-0.159
4,RRIRFRPPRLPRPRPRPQHSPRP,-0.347
5,RRIRFRPPRLPRPRPRPSWVPRP,-0.393
6,RRIRYRPPRLPRPRPRPLWWPRP,-0.696
7,RRIRARPPRLPRPRPRPCMIPRP,-0.261
8,RRIRARPPRLPRPRPRPDQGPRP,0.261
9,RRIRARPPRLPRPRPRPEQRPRP,0.2
10,RRIRYRPPRLPRPRPRPTHRPRP,-0.1
11,RRIRQRPPRLPRPRPRPGWFPRP,0.209
12,RRIRRRPPRLPRPRPRPFGIPRP,0.0306
13,RRIRMRPPRLPRPRPRPVECPRP,-0.117
14,RRIRRRPPRLPRPRPRPWEVPRP,0.125
15,RRIRWRPPRLPRPRPRPGLHPRP,0.237
16,RRIRSRPPRLPRPRPRPGYQPRP,-0.147
17,RRIRKRPPRLPRPRPRPCKYPRP,0.0409
18,RRIRERPPRLPRPRPRPQGHPRP,-0.0972
19,RRIRSRPPRLPRPRPRPVTVPRP,-0.057
20,RRIRFRPPRLPRPRPRPSYAPRP,-0.116
21,RRIRERPPRLPRPRPRPITMPRP,-0.408
22,RRIRCRPPRLPRPRPRPQIQPRP,-0.288

row,Sequence,shrunken log2 fold change
1,RRIRLRPPRLPRPRPRPLRAPRP,0.709
2,RRIRDRPPRLPRPRPRPGDPPRP,0.293
3,RRIRNRPPRLPRPRPRPTRYPRP,0.217
4,RRIRERPPRLPRPRPRPGHVPRP,-0.00285
5,RRIRERPPRLPRPRPRPWDRPRP,-0.146
6,RRIRGRPPRLPRPRPRPNEDPRP,0.468
7,RRIRGRPPRLPRPRPRPADSPRP,0.283
8,RRIRSRPPRLPRPRPRPCTCPRP,-0.177
9,RRIRFRPPRLPRPRPRPTMWPRP,0.0084
10,RRIRTRPPRLPRPRPRPCLKPRP,-0.0017
11,RRIRQRPPRLPRPRPRPTNQPRP,0.0625
12,RRIRMRPPRLPRPRPRPMQFPRP,0.167
13,RRIRRRPPRLPRPRPRPRLPPRP,0.663
14,RRIRVRPPRLPRPRPRPNATPRP,0.172
15,RRIRCRPPRLPRPRPRPIGHPRP,-0.312
16,RRIRWRPPRLPRPRPRPGEEPRP,0.387
17,RRIRIRPPRLPRPRPRPANFPRP,-0.554
18,RRIRARPPRLPRPRPRPLIEPRP,0.388
19,RRIRWRPPRLPRPRPRPPINPRP,-0.0948
20,RRIRKRPPRLPRPRPRPCQWPRP,-0.0983
21,RRIRPRPPRLPRPRPRPDEIPRP,-0.144
22,RRIRPRPPRLPRPRPRPWHYPRP,0.0497

row,Sequence,shrunken log2 fold change
1,RRIRVRPPRLPRPRPRPPLEPRP,0.431
2,RRIRTRPPRLPRPRPRPADVPRP,-0.391
3,RRIRLRPPRLPRPRPRPTEQPRP,0.0272
4,RRIRIRPPRLPRPRPRPGNGPRP,0.0389
5,RRIRQRPPRLPRPRPRPRWVPRP,0.345
6,RRIRTRPPRLPRPRPRPFVAPRP,-0.0696
7,RRIRYRPPRLPRPRPRPNQSPRP,-0.268
8,RRIRHRPPRLPRPRPRPLTCPRP,-0.0216
9,RRIRKRPPRLPRPRPRPPSYPRP,0.667
10,RRIRPRPPRLPRPRPRPFEWPRP,-0.124
11,RRIRTRPPRLPRPRPRPMNNPRP,-0.582
12,RRIRCRPPRLPRPRPRPDGMPRP,-0.239
13,RRIRRRPPRLPRPRPRPCNGPRP,-0.199
14,RRIRRRPPRLPRPRPRPMTDPRP,0.00399
15,RRIRMRPPRLPRPRPRPWCHPRP,0.0355
16,RRIRERPPRLPRPRPRPENYPRP,2
17,RRIRSRPPRLPRPRPRPEMMPRP,0.681
18,RRIRNRPPRLPRPRPRPNRCPRP,-0.0238
19,RRIRPRPPRLPRPRPRPVWSPRP,0.0634
20,RRIRLRPPRLPRPRPRPWREPRP,-0.018
21,RRIRSRPPRLPRPRPRPMSIPRP,-0.214
22,RRIRGRPPRLPRPRPRPWEVPRP,0.0273

row,Sequence,shrunken log2 fold change
1,RRIRYRPPRLPRPRPRPYLTPRP,-0.305
2,RRIRERPPRLPRPRPRPVATPRP,0.124
3,RRIRCRPPRLPRPRPRPDYVPRP,-1.26
4,RRIRIRPPRLPRPRPRPRDNPRP,-0.348
5,RRIRVRPPRLPRPRPRPVGCPRP,0.417
6,RRIRKRPPRLPRPRPRPNHEPRP,-0.0766
7,RRIRCRPPRLPRPRPRPWDKPRP,-0.0809
8,RRIRGRPPRLPRPRPRPCKQPRP,0.0431
9,RRIRPRPPRLPRPRPRPIVDPRP,0.0804
10,RRIRNRPPRLPRPRPRPDYRPRP,-0.668
11,RRIRGRPPRLPRPRPRPLLLPRP,0.607
12,RRIRPRPPRLPRPRPRPWLMPRP,-0.118
13,RRIRLRPPRLPRPRPRPMSNPRP,-0.089
14,RRIRIRPPRLPRPRPRPKIQPRP,-0.196
15,RRIRYRPPRLPRPRPRPQQIPRP,-0.142
16,RRIRCRPPRLPRPRPRPAHIPRP,-0.0847
17,RRIRPRPPRLPRPRPRPKEMPRP,-0.106
18,RRIRGRPPRLPRPRPRPDWLPRP,0.963
19,RRIRVRPPRLPRPRPRPSQMPRP,-0.0502
20,RRIRNRPPRLPRPRPRPWEDPRP,-0.0966
21,RRIRKRPPRLPRPRPRPCCLPRP,-0.0964
